Two substances from paper PMC4598629 can be followed below.

For test [1], the target named is SOAR, purified wild-type protein (UniProt Q13586). Description: SEC; purified SOAR and SOAR-F394H, ~0.5 mg/ml, Superdex-200 16/60, 200 mM NaCl, 20 mM Mes-NaOH pH 6.5, 2.5 ml/min; calibrated with protein standards; monomers to dimer. On the technique in general: SEC sorts molecules by how far they enter the pores of the column.
Test [2] shares this target. Description: cross-linking; purified proteins dialysed against PBS, 0.5 mg/ml, disuccinimidyl suberate 0, 0.1 and 1 mM, 30 min, room temperature; SDS-PAGE, Coomassie blue; monomers to dimer.
Test [3] deals with SOAR-F394H, purified protein (UniProt Q13586). Description: SEC; purified SOAR and SOAR-F394H, ~0.5 mg/ml, Superdex-200 16/60, 200 mM NaCl, 20 mM Mes-NaOH pH 6.5, 2.5 ml/min; calibrated with protein standards; monomers to dimer.
Test [4] has the same target. Description: cross-linking; purified proteins dialysed against PBS, 0.5 mg/ml, disuccinimidyl suberate 0, 0.1 and 1 mM, 30 min, room temperature; SDS-PAGE, Coomassie blue; monomers to dimer.

“SOAR, purified wild-type protein (from UniProt Q13586 344-442) (domain or fragment)”: the stoichiometry N in test [1] and in test [2] was 2 throughout.

Regarding “SOAR-F394H, purified protein (from UniProt Q13586 344-442) (domain or fragment)”, the stoichiometry N in test [3] and in test [4] was 2 in each case.

The term stoichiometry N denotes the number of molecules, sites or subunits per partner or assembly.
